Experiments:
[1] = molecular target: T1, Polθ-h (Polθ helicase domain) (UniProt O75417 1-894); assay: single-molecule ssDNA curtain oligo capture; captured in trans by Polθ-h on RPA-GFP-coated ssDNA; no capture without Polθ-h; Imaging Buffer: 40 mM Tris-HCl pH 8.0, 50 mM NaCl, 2 mM MgCl2, 1 mM DTT, 0.2 mg/ml BSA, 1 mM ATP; EMSA at room temperature, single-molecule at 37 C; PARP-1 tethering without BSA; displacement EMSA in 30 mM HEPES pH 8.0, 50 mM NaCl, 1.5 mM MgCl2, 1 mM DTT; settings: protein: recombinant; tags: pET19 N-terminal 6xHis-TwinStrep-SUMO; chain copies: 4; label: 5'-Atto647N
T1 sequence (O75417 1-894): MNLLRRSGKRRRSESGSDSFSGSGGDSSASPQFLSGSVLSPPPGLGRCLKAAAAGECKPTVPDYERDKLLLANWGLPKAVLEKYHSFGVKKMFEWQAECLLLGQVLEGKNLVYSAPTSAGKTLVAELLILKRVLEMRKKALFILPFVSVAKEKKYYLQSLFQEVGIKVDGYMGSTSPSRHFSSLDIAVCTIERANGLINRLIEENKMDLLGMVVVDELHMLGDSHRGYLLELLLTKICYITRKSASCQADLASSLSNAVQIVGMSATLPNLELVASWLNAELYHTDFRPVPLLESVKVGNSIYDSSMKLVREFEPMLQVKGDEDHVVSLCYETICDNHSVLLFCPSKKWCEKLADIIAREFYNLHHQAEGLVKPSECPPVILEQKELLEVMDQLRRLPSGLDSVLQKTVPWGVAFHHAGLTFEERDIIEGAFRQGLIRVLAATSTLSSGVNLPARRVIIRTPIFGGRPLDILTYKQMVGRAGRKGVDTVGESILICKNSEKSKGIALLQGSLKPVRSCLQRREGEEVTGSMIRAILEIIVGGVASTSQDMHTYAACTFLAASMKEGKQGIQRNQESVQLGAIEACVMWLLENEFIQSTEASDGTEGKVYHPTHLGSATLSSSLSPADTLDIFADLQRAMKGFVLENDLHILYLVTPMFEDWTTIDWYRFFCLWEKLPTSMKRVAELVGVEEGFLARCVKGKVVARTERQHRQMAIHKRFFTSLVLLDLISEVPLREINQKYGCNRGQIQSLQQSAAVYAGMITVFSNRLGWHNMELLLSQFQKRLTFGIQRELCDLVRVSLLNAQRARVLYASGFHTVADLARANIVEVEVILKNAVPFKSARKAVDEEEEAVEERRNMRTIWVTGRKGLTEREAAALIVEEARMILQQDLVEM

[2] = molecular target: T1, Polθ-h (Polθ helicase domain); assay: EMSA; no PARP-1 modification; hyperbolic fit; Imaging Buffer: 40 mM Tris-HCl pH 8.0, 50 mM NaCl, 2 mM MgCl2, 1 mM DTT, 0.2 mg/ml BSA, 1 mM ATP; EMSA at room temperature, single-molecule at 37 C; PARP-1 tethering without BSA; displacement EMSA in 30 mM HEPES pH 8.0, 50 mM NaCl, 1.5 mM MgCl2, 1 mM DTT; settings: protein: recombinant; tags: pET19 N-terminal 6xHis-TwinStrep-SUMO; chain copies: 4; label: 5'-32P in EMSA; unlabeled as challenge in tethering assay

Binder | binding result [1] | Kd [2] [nM]
TCCTCTTTTTCTTTTTTTCTTTTCTTCC (ssDNA) [Noncomp-647N] | binds | 
TTTTTTTTTTTTTTTTTTTTTTTTTTTTTTTTTTTTTTTTTTTTTTTTTT (ssDNA) [dT50 (Poly-T50)] |  | 39 ± 12

— PMC9023281, “Polymerase theta-helicase promotes end joining by stripping single-stranded DNA-binding proteins and bridging DNA ends”
